Measurements from patent publication US7790845B2, “Bacterial ion channel” (Children's Medical Center Corporation, priority 2001, dated 2010).
Where two headings read alike, the source gives them in different places. Marks after values point to notes of the source that are not given here.

Key:
Assay type in all cases: cell-based
CHO-K1 or COS-7 cells [1] = assay: Whole-cell current, activation, inactivation and recovery of NaChBac (Example 1)
[2] = tested on: CHO-K1 cells or COS-7 cells; assay: Expression, voltage- and time-dependence of wt and mutant NaChBac (Example 2)
Source text: NaChBac was cloned from Bacillus halodurans C-125 DNA by the polymerase chain reaction (PCR; BAB05220) (Ren, Navarro et al. 2001). The NaChBac construct containing an open reading frame of 274 amino acid residues was subcloned into a pTracer-CMV2 vector (Invitrogen, Carlsbad, Calif.) containing enhanced green fluorescent protein (eGFP). The skeletal muscle Na^+ channel SKM1 (M26643) was used in comparison to NaChBac under identical recording conditions and determinations of permeability ratios. Mutations were introduced into the NaChBac cDNA by site-directed mutagenesis (Quickchange™ site-directed mutagenesis kit; Stratagene; La Jolla, Calif.). All mutations were confirmed by DNA sequencing and restriction digestion. Wild-type NaChBac and mutant cDNAs were transfected into CHO-K1 cells or COS-7 cells with LipofectAMINE 2000 (Life Technologies, Rockville, Md.). Transfected cells were identified by fluorescence microscopy and membrane currents were recorded 24 to 48 hours after transfection.
(§1) Unless otherwise stated, the pipette solution contained (in mM); 147 Cs, 120 methanesulfonate, 8 NaCl, 10 EGTA, 2 Mg^2+-adenosine triphosphate, and 20 HEPES (pH 7.4). Bath solution contained (in mM); 140 NaCl, 10 CaCl2, 5 KCl, 10 HEPES (pH 7.4), and 10 glucose. For some experiments, NaCl was isotonically replaced by CaCl2.
The voltage dependence of NaChBac and mutants channel activation was determined from a holding potential of −100 mV. Instantaneous tail current were measured at −100 mV after a test potential of 40 ms duration. Normalized tail current amplitude was plotted vs. test potentials and fitted with a Boltzmann function. Measurements of steady state inactivation for NaChBac and mutants channel were resolved using 2 s prepulses and 1 s test pulse to −10 mV, 0 mV or +20 mV depending on the mutant's peak voltage. Cells were held at −100 mV for 20 s between pulses to allow the recovery from inactivation. Normalized test current amplitude was plotted vs. prepulse potential and fitted with a Boltzmann function. The activation and steady state inactivation curve were fitted by the Boltzmann equation: I=Imax−(Imax−Imin)/(1+exp((V−V1/2)/k)) where Imax and Imin are the maximum and minimum current values, V is the test voltage, V1/2 is the voltage activation midpoint and k is the slope factor.
Whole-cell currents were recorded using an Axopatch 200B (Axon Instruments, Union City, Calif.) amplifier. Data were digitized at 10 or 20 kHz, and digitally filtered off-line at 1 kHz. Patch electrodes were pulled from borosilicate glass and had resistances of 2-5 MΩ. All experiments were conducted at 22°±2° C. For CHO cells, cell capacitance was 7.6±0.3 pF and for COS-7 cells was 13.9±0.6 pF. […] Series resistance (Rs) was compensated up to 90% to reduce all series resistance errors to <5 mV. Cells in which […] were discarded. Pooled data are presented as means±SEM. Statistical comparisons were made using two-way analysis of variance (ANOVA) and two-tailed t-test with Bonferroni correction; P<0.05 indicated statistical significance.

CHO-K1 or COS-7 cells [3] = assay: Single channel properties of NaChBac, inside-out patch
Source text: The single channel properties of NaChBac were studied in the inside-out patch configuration. Solutions were the same as used in whole-cell recording except that the pipette and bath solutions were reversed. The unitary single channel conductance was best fit with a slope of 12 pS±1 pS (n=7 cells). Consistent with the whole-cell current, single channels were activated by depolarization and both open and closed times varied as a function of voltage (not shown). An ensemble average of single channel currents from 5 cells resembled whole cell INaChBac with τact=10±3.5 ms and τinact=203±43 ms (FIG. 2D).

[4] = tested on: CHO-K1 cells or COS-7 cells; assay: Ca2+/Na+ selectivity of wt and mutant NaChBac, reversal potential under bi-ionic conditions (Example 2)
Description: as §1
For reversal potential measurements to determine the relative permeabilities of Na^+ and Ca^2+, the internal pipette solution contained (in mM): 100 mM Na-Gluconate, 10 NaCl, 10 EGTA, 20 HEPES-Na (pH 7.4 adjusted with NaOH, [Na^+]total=140). The external solution was (in mM): 140 NMDG-Cl, 10 CaCl2, 20 HEPES (pH 7.4 adjusted with HCl) or 80 NMDG-Cl, 50 CaCl2, and 20 HEPES. The fast kinetics and small current amplitude of SKM1 in 10 mM [Ca^2+]o necessitated the use of 50 mM [Ca^2+]o for accurate determination of Erev. The permeability ratio of Ca2+ was estimated according to the following equation: PCa/Px=asi(exp(ErevF/RT)[(exp(ErevF/RT)+1]/(4ase) where R, T, F, and Erev are the gas constant, absolute temperature, Faraday constant, and reversal potential, respectively, and x represents Cs^+ or Na^+ (i, internal; e, external) (Hille 2001). For calculations of membrane permeability, activity coefficients for Ca^2+, Cs^+ and Na^+ were estimated as follows: as=γs[Xs] where activity, as, is the effective concentration of an ion in solution, s related to the nominal concentration [Xs] by the activity coefficient, γs·γs was calculated from the Debye-Hückel equation: log γs=−0.51*zs^2√μ/[1+3.8ασ√μ] where μ is the ionic strength of the solution, zs is the charge on the ion, and αs is the effective diameter of the hydrated ion in nanometers (nm). The calculated activity coefficients were γ(Cs)i=0.70, γ(Ca)e=0.331, γ(Na)i=0.75 and γ(Na)e=0.73. The liquid junction potentials were measured using a salt bridge as described by Neher (Neher 1992) and these measurements agreed within 3 mV to those calculated by the JPCalc program (P. Barry) within Clampex (Axon Instruments, Union City, Calif.).
Reversal potentials of the NaChBac mutants were measured under bi-ionic conditions as described in the Methods. […] The average peak current amplitude measured at 0 mV obtained in 10 mM Ca^2+ Tyrode's solution or in 105 mM Ca^2+ solution is shown in FIG. 7B and normalized to the current amplitude measured in 10 mM Ca^2+ solution (FIG. 7C).
Relative permeability (PCa/PNa) was calculated as described in the Methods and Table 1. Since PCa/PNa had not been described for native Nav channels under these specific conditions, we also measured the relative permeability for SKM1, a skeletal muscle Na^+-selective channel (SKM1; Kraner, Rich et al. 1998) was expressed in COS and CHO cells and examined under identical conditions as NaChBac and similar to its mutants; Table 1).

B1: NaChBac: bacterial voltage-sensitive Na+-selective ion channel from Bacillus halodurans, 274 amino acids, SEQ ID NO: 1; pore residues 190-195 LESWAS (protein)
chain: MKMEARQKQNSFTSKMQKIVNHRAFTFTVIALILFNALIVGIETYPRIYADHKWLFYRIDLVLLWIFTIEIAMRFLASNPKSAFFRSSWNWFDFLIVAAGHIFAGAQFVTVLRILRVLRVLRAISVVPSLRRLVDALVMTIPALGNILILMSIFFYIFAVIGTMLFQHVSPEYFGNLQLSLLTLFQVVTLESWASGVMRPIFAEVPWSWLYFVSFVLIGTFIIFNLFIGVIVNNVEKAELTDNEEDGEADGLKQEISALRKDVAELKSLLKQLK
modifications: Bacillus Halodurans
notes: pore residues 190-195 LESWAS
voltage of 50% steady-state inactivation (CHO-K1 or COS-7 cells [1]): −40 mV
activation τ (CHO-K1 or COS-7 cells [1]; at −10 mV, n=32): 12.9 ± 0.4 ms
inactivation τ (CHO-K1 or COS-7 cells [1]; at −10 mV, n=32): 166 ± 13 ms
reversal potential of INaChBac (CHO-K1 or COS-7 cells [1]; whole-cell, ENa=+72 mV): +70 mV
current in COS-7 cells relative to CHO-K1 cells [2]: 4 to 6 times
GFP expressing/transfected cells with substantial or detectable currents ([2]; 24-48 hours after transfection): More than 98%
V1/2 act ([2]; Boltzmann fit of tail currents): −22 mV
τact ([2]; membrane voltage −10 mV): 12.9 ± 0.4^a ms
τinact ([2]; membrane voltage −10 mV): 166.0 ± 13^a ms
kact ([2]; slope factor of activation): 7 mV/e fold
V1/2 inact ([2]; steady state inactivation, 2 s prepulses): −40 mV
τact of ensemble average of single channel currents (CHO-K1 or COS-7 cells [3]; 5 cells): 10 ± 3.5 ms
τinact of ensemble average of single channel currents (CHO-K1 or COS-7 cells [3]; 5 cells): 203 ± 43 ms
unitary single channel conductance (CHO-K1 or COS-7 cells [3]; inside-out patch, n=7 cells): 12 pS
current in 10 mM Ca2+/NMDG solution compared to 10 mM Ca2+ solution with Na+ [4]: almost undetectable
current on replacing 140 mM Na+/10 mM Ca2+ solution by isotonic (105 mM) Ca2+ solution [4]: practically undetectable
PCa/PNa ([4]; external solution 80 NMDG-Cl, 50 CaCl2, 20 HEPES, listed as wt NaChBac): 0.15
current in 10 mM Ca2+/NMDG solution compared to 10 mM Ca2+ solution with Na+ ([4]; listed as wt NaChBac): virtually eliminated
